Consider one substance from article PMC12363175.

For this test, the target named is BANAL-20-52 S ectodomain with stabilizing mutations. The experiment in a line: AUC.

peptidase domain (PD) of hACE2, sequence (Q9BYF1 19-615): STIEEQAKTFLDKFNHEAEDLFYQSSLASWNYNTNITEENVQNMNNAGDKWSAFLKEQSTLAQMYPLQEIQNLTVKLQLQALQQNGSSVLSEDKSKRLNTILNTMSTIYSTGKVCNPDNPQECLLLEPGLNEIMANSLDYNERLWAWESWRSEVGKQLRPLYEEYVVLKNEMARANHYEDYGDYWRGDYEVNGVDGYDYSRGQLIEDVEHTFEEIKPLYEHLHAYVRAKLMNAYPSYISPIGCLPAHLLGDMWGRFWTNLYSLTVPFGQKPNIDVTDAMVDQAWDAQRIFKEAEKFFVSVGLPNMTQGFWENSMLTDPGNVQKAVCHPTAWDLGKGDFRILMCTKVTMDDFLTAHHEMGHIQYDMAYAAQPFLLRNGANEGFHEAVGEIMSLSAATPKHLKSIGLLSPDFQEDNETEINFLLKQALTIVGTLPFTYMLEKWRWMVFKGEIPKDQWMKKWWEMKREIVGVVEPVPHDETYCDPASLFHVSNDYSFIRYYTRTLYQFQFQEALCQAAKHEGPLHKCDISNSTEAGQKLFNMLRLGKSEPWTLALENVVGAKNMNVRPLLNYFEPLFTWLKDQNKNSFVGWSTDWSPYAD

As to “peptidase domain (PD) of hACE2 (from UniProt Q9BYF1 19-615) (domain or fragment)”, the stoichiometry N (hACE2 molecules per S trimer) was 2.
